This series concerns the target ARID1A (endogenous, ARID1A-wildtype cancer cell lysate) (UniProt O14497).
Chain of UniProt O14497 (O14497 whole entry, looked up): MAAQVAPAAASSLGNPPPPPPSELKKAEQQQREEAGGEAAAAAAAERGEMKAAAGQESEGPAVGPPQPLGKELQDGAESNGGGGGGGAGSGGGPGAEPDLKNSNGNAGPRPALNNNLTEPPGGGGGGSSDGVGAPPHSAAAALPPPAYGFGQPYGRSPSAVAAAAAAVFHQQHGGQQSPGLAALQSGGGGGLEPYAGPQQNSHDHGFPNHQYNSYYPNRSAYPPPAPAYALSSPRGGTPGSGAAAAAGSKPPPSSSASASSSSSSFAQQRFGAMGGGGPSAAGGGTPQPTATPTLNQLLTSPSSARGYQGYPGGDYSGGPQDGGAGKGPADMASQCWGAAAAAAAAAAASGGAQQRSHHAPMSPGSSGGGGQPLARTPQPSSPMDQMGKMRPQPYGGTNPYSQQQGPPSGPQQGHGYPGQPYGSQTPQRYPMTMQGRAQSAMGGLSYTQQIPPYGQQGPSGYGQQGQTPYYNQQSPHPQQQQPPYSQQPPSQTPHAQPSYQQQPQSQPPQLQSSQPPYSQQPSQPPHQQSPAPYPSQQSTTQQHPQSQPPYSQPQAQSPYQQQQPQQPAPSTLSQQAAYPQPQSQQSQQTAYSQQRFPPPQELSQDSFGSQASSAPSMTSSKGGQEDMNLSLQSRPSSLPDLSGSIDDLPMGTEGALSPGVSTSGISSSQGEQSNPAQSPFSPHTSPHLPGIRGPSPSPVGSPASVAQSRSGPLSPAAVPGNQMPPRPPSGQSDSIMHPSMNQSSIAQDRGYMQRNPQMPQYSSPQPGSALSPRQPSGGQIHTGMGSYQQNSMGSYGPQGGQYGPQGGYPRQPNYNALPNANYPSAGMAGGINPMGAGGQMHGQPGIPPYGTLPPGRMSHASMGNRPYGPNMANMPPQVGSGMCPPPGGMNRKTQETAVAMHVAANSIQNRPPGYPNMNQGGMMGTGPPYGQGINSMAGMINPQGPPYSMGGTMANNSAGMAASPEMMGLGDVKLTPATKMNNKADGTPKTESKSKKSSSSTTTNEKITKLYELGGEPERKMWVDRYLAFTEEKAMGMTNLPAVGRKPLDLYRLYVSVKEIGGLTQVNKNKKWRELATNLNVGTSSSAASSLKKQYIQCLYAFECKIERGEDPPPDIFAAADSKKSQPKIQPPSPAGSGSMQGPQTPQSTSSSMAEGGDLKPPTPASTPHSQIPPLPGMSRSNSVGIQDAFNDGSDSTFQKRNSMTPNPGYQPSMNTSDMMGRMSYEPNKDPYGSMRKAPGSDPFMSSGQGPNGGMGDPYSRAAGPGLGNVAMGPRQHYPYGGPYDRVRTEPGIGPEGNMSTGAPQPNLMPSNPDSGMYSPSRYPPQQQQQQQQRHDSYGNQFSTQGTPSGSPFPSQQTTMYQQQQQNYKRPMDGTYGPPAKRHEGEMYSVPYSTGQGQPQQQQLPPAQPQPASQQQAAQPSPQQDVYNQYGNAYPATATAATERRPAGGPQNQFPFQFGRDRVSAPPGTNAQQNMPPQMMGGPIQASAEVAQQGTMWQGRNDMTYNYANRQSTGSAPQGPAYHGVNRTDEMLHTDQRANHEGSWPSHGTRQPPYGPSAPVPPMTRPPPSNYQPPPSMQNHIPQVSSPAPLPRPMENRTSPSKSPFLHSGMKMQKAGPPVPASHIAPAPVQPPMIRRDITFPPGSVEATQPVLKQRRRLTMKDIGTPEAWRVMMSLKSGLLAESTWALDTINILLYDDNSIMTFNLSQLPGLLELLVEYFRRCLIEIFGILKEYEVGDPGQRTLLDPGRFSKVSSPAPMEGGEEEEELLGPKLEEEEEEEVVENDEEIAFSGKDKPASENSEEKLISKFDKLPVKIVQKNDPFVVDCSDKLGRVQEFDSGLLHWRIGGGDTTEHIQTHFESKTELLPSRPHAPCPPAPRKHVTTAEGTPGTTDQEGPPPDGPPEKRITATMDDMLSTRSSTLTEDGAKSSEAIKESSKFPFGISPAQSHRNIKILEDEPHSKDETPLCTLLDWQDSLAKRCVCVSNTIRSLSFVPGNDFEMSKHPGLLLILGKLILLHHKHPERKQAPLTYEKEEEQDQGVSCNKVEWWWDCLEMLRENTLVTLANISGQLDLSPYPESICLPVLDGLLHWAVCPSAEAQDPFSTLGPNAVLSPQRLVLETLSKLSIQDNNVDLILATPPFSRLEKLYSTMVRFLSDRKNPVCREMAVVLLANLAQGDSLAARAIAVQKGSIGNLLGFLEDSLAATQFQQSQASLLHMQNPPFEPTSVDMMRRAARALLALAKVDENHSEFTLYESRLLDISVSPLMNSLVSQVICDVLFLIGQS

For “Carbamoyl-phosphate synthetase 2, Aspartate transcarbamoylase, and Dihydroorotase (CAD) (endogenous)”, the “total CAD and phosphorylated CAD (Serine-1859) protein levels by immunoblot after ARID1A knockdown or restoration” value is “wildtype ARID1A functions as a negative regulator of CAD, wherein ARID1A deficiency results in an increase in total and phosphorylated CAD”.

(Values after patent US20210154165.)
